T1: cynomolgus IL-17A (cynomolgus, UniProt Q16552 24-155 (human entry), limits assumed)
T1 construct: also called cyno IL-17A; cynoIL-17A
T1 chain: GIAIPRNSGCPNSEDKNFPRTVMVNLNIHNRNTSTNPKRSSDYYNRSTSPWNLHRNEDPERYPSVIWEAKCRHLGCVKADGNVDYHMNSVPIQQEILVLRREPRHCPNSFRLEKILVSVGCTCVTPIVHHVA


Target: T1, cynomolgus IL-17A
Test: competition ELISA: mAb against biotinylated cyno IL-17A binding to coated IL-17RA-Fc
Method: (§1) Clear maxisorp plates were coated with 100 μl/well of 2.5 μg/ml human IL-17RA-Fc (R&D Systems, Minneapolis, Minn.) in 0.1 M sodium carbonate-bicarbonate buffer, pH 9.4 and incubated overnight at 4° C. […] The signal was detected with 100 μl of 1:10,000 dilution of 1 mg/ml SA-HRP (Jackson Immunoresearch, West Grove, Pa.) for 20 minutes at room temperature (RT) followed by 100 μl/well of OPD substrate (Sigma-Aldrich Corp., St. Louis, Mo.).

Row | IC50 | Binder
1 | 0.054 nM | mAb3077 (antibody, human IgG1, lambda, V domains shown, Framework-engineered mAb; also called engineered form of MOR7785) VH: QVQLVQSGAEVKKPGSSVKVSCKASGGTFSSYAISWVRQAPGQGLEWMGSIIPWFGWTNYAQKFQGRVTITADESTSTAYMELSSLRSEDTAVYYCARDSEYYFDHWGQGTLVTVSS VL: DIQMTQSPSSVSASVGDRVTITCRASQGISNWLNWYQQKPGKAPKLLIYAASSLQSGVPSRFSGSGSGTDFTLTISSLQPEDFATYYCQQYSDDPTFGQGTKVEIKG
2 | 0.117 nM | mAb7024 (antibody, human IgG1, lambda, V domains shown, Framework-engineered mAb; also called engineered form of MOR8104) VH: QVQLVQSGAEVKKPGSSVKVSCKASGGTFSSYAISWVRQAPGQGLEWMGSIIPWFGTTNYAQKFQGRVTITADESTSTAYMELSSLRSEDTAVYYCARDSEYYFDHWGQGTLVTVSS VL: DIQMTQSPSSVSASVGDRVTITCRASQGISNWLNWYQQKPGKAPKLLIYAASSLQSGVPSRFSGSGSGTDFTLTISSLQPEDFATYYCQQYSDDPTFGQGTKVEIKG
3 | 0.051 nM | mAb624 (antibody, human IgG1, lambda, V domains shown, Framework-engineered mAb; also called engineered form of MOR7708) VH: QVQLVQSGAEVKKPGSSVKVSCKASGGTFSSYAISWVRQAPGQGLEWMGRIIPWFGWTSYAQKFQGRVTITADESTSTAYMELSSLRSEDTAVYYCARDSEYYFDHWGQGTLVTVSS VL: DIQMTQSPSSVSASVGDRVTITCRASQGISNWLNWYQQKPGKAPKLLIYAASSLQSGVPSRFSGSGSGTDFTLTISSLQPEDFATYYCQQYSDDPTFGQGTKVEIKG

Target: T1, cynomolgus IL-17A
Test: as above
Remark: another data set of the same source
Method: as §1

Row | Binder | IC50
4 | MORmAb7775 (antibody, V domains shown) VH: QVQLQQSGPGLVKPSQTLSLTCAISGDSVSSSSAAWGWIRQSPGRGLEWLGRISYRSKWYNDYAVSVKSRITINPDTSKNQFSLQLNSVTPEDTAVYYCAREVDSMYYSYFDIWGQGTLVTVSS VL: DIVLTQSPATLSLSPGERATLSCRASQNVWAFYLAWYQQKPGQAPRLLIYGASNRATGVPARFSGSGSGTDFTLTISSLEPEDFATYYCTQYYSSPSLTFGQGTKVEIK | 0.541 nM
5 | MORmAb8101 (antibody, V domains shown) VH: QVQLQQSGPGLVKPSQTLSLTCAISGDSVSSSSAAWGWIRQSPGRGLEWLGRISYRSKWYNDYAVSVKSRITINPDTSKNQFSLQLNSVTPEDTAVYYCAREVDSIYYSYFDIWGQGTLVTVSS VL: DIVLTQSPATLSLSPGERATLSCRASQNVWAFYLAWYQQKPGQAPRLLIYGASNRATGVPARFSGSGSGTDFTLTISSLEPEDFATYYCTQYYSSPSLTFGQGTKVEIK | 0.845 nM
6 | MORmAb8102 (antibody, V domains shown) VH: QVQLQQSGPGLVKPSQTLSLTCAISGDSVSSSSAAWGWIRQSPGRGLEWLGRISYRSKWYNDYAVSVKSRITINPDTSKNQFSLQLNSVTPEDTAVYYCAREVDSLYYSYFDIWGQGTLVTVSS VL: DIVLTQSPATLSLSPGERATLSCRASQNVWAFYLAWYQQKPGQAPRLLIYGASNRATGVPARFSGSGSGTDFTLTISSLEPEDFATYYCTQYYSSPSLTFGQGTKVEIK | 0.838 nM
7 | MORmAb7706 (antibody, V domains shown) VH: QVQLQQSGPGLVKPSQTLSLTCAISGDSVSSSSAAWGWIRQSPGRGLEWLGRISYRSKWYNDYAVSVKSRITINPDTSKNQFSLQLNSVTPEDTAVYYCAREVDSMYYSYFDIWGQGTLVTVSS VL: DIVLTQSPATLSLSPGERATLSCRASQNVWAFYLAWYQQKPGQAPRLLIYGASNRATGVPARFSGSGSGTDFTLTISSLEPEDFATYYCQQYRSTLSLTFGQGTKVEIK | 0.961 nM
8 | MORmAb7785 (antibody, V domains shown) VH: QVQLVQSGAEVKKPGSSVKVSCKASGGTFSSYAISWVRQAPGQGLEWMGSIIPWFGWTNYAQKFQGRVTITADESTSTAYMELSSLRSEDTAVYYCARDSEYYFDHWGQGTLVTVSS VL: DIQMTQSPSSLSASVGDRVTITCRASQGISNWLNWYQQKPGKAPKLLIYAASSLQSGVPSRFSGSGSGTDFTLTISSLQPEDFAVYYCQQYSDDPTFGQGTKVEIK | 0.27 nM
9 | MORmAb7700 (antibody, V domains shown) VH: QVQLVESGGGLVQPGGSLRLSCAASGFTFSSYAMSWVRQAPGKGLEWVSTISMTSGFTYYADSVKGRFTISRDNSKNTLYLQMNSLRAEDTAVYYCARQLMLDVWGQGTLVTVSS VL: DIELTQPPSVSVAPGQTARISCSGDNLGDKYANWYQQKPGQAPVLVIYDDIDRPSGIPERFSGSNSGNTATLTISGTQAEDEADYYCGSYDFFLGMIVFGGGTKLTVL | 0.236 nM
10 | MORmAb8141 (antibody, V domains shown) VH: QVQLVESGGGLVQPGGSLRLSCAASGFTFSSYAMSWVRQAPGKGLEWVSTISMTSGFTYYADSVKGRFTISRDNSKNTLYLQMNSLRAEDTAVYYCARQLMLDVWGQGTLVTVSS VL: DIELTQPPSVSVAPGQTARISCSGDNLGDKYANWYQQKPGQAPVLVIYDDIDRPSGIPERFSGSNSGNTATLTISGTQAEDEADYYCGSYDFFLGLIVFGGGTKLTVL | 1.44 nM

Second part, the binder after the results:

Row | IC50 | Binder
11 | 0.491 nM | MORmAb8103 (antibody, V domains shown) VH: QVQLQQSGPGLVKPSQTLSLTCAISGDSVSSSSAAWGWIRQSPGRGLEWLGRISYRSKWYNDYAVSVKSRITINPDTSKNQFSLQLNSVTPEDTAVYYCAREVDSTYYSYFDIWGQGTLVTVSS VL: DIVLTQSPATLSLSPGERATLSCRASQNVWAFYLAWYQQKPGQAPRLLIYGASNRATGVPARFSGSGSGTDFTLTISSLEPEDFATYYCTQYYSSPSLTFGQGTKVEIK
12 | 0.306 nM | MORmAb8104 (antibody, V domains shown) VH: QVQLVQSGAEVKKPGSSVKVSCKASGGTFSSYAISWVRQAPGQGLEWMGSIIPWFGTTNYAQKFQGRVTITADESTSTAYMELSSLRSEDTAVYYCARDSEYYFDHWGQGTLVTVSS VL: DIQMTQSPSSLSASVGDRVTITCRASQGISNWLNWYQQKPGKAPKLLIYAASSLQSGVPSRFSGSGSGTDFTLTISSLQPEDFAVYYCQQYSDDPTFGQGTKVEIK
13 | 0.289 nM | MORmAb7708 (antibody, V domains shown) VH: QVQLVQSGAEVKKPGSSVKVSCKASGGTFSSYAISWVRQAPGQGLEWMGRIIPWFGWTSYAQKFQGRVTITADESTSTAYMELSSLRSEDTAVYYCARDSEYYFDHWGQGTLVTVSS VL: DIQMTQSPSSLSASVGDRVTITCRASQGISNWLNWYQQKPGKAPKLLIYAASSLQSGVPSRFSGSGSGTDFTLTISSLQPEDFAVYYCQQYSDDPTFGQGTKVEIK
14 | 0.498 nM | MORmAb8105 (antibody, V domains shown) VH: QVQLVQSGAEVKKPGSSVKVSCKASGGTFSSYAISWVRQAPGQGLEWMGSIIPWFGYTNYAQKFQGRVTITADESTSTAYMELSSLRSEDTAVYYCARDSEYYFDHWGQGTLVTVSS VL: DIQMTQSPSSLSASVGDRVTITCRASQGISNWLNWYQQKPGKAPKLLIYAASSLQSGVPSRFSGSGSGTDFTLTISSLQPEDFAVYYCQQYSDDPTFGQGTKVEIK
15 | 0.058 nM | MORmAb8096 (antibody, V domains shown) VH: QVQLVESGGGLVQPGGSLRLSCAASGFTFSSYAMSWVRQAPGKGLEWVSTISLTSGFTYYADSVKGRFTISRDNSKNTLYLQMNSLRAEDTAVYYCARQLMLDVWGQGTLVTVSS VL: DIELTQPPSVSVAPGQTARISCSGDNLGDKYANWYQQKPGQAPVLVIYDDIDRPSGIPERFSGSNSGNTATLTISGTQAEDEADYYCGSYDFFLGMIVFGGGTKLTVL
16 | 0.289 nM | MORmAb8098 (antibody, V domains shown) VH: QVQLVESGGGLVQPGGSLRLSCAASGFTFSSYAMSWVRQAPGKGLEWVSTISMTSGFTYYADSVKGRFTISRDNSKNTLYLQMNSLRAEDTAVYYCARQLTLDVWGQGTLVTVSS VL: DIELTQPPSVSVAPGQTARISCSGDNLGDKYANWYQQKPGQAPVLVIYDDIDRPSGIPERFSGSNSGNTATLTISGTQAEDEADYYCGSYDFFLGMIVFGGGTKLTVL
17 | 0.252 nM | MORmAb8143 (antibody, V domains shown) VH: QVQLVESGGGLVQPGGSLRLSCAASGFTFSSYAMSWVRQAPGKGLEWVSTISMTSGFTYYADSVKGRFTISRDNSKNTLYLQMNSLRAEDTAVYYCARQLMLDVWGQGTLVTVSS VL: DIELTQPPSVSVAPGQTARISCSGDNLGDKYANWYQQKPGQAPVLVIYDDIDRPSGIPERFSGSNSGNTATLTISGTQAEDEADYYCGSYDFFLGYIVFGGGTKLTVL
18 | 0.198 nM | MORmAb8095 (antibody, V domains shown) VH: QVQLVESGGGLVQPGGSLRLSCAASGFTFSSYAMSWVRQAPGKGLEWVSTISITSGFTYYADSVKGRFTISRDNSKNTLYLQMNSLRAEDTAVYYCARQLMLDVWGQGTLVTVSS VL: DIELTQPPSVSVAPGQTARISCSGDNLGDKYANWYQQKPGQAPVLVIYDDIDRPSGIPERFSGSNSGNTATLTISGTQAEDEADYYCGSYDFFLGMIVFGGGTKLTVL
19 | 0.3 nM | MORmAb8097 (antibody, V domains shown) VH: QVQLVESGGGLVQPGGSLRLSCAASGFTFSSYAMSWVRQAPGKGLEWVSTISMTSGFTYYADSVKGRFTISRDNSKNTLYLQMNSLRAEDTAVYYCARQLLLDVWGQGTLVTVSS VL: DIELTQPPSVSVAPGQTARISCSGDNLGDKYANWYQQKPGQAPVLVIYDDIDRPSGIPERFSGSNSGNTATLTISGTQAEDEADYYCGSYDFFLGMIVFGGGTKLTVL
20 | 0.139 nM | MORmAb8142 (antibody, V domains shown) VH: QVQLVESGGGLVQPGGSLRLSCAASGFTFSSYAMSWVRQAPGKGLEWVSTISMTSGFTYYADSVKGRFTISRDNSKNTLYLQMNSLRAEDTAVYYCARQLMLDVWGQGTLVTVSS VL: DIELTQPPSVSVAPGQTARISCSGDNLGDKYANWYQQKPGQAPVLVIYDDIDRPSGIPERFSGSNSGNTATLTISGTQAEDEADYYCGSYDFFLGTIVFGGGTKLTVL

Target: T1, cynomolgus IL-17A
Test: cell-based or functional assay

Row | IL-6 production (NHDF), IC50 | IL-8 production (NHDF), IC50 | Binder
21 | 113 pM | 374 pM | mAb3077 (antibody, human IgG1, lambda, V domains shown, Framework-engineered mAb; also called engineered form of MOR7785) VH: QVQLVQSGAEVKKPGSSVKVSCKASGGTFSSYAISWVRQAPGQGLEWMGSIIPWFGWTNYAQKFQGRVTITADESTSTAYMELSSLRSEDTAVYYCARDSEYYFDHWGQGTLVTVSS VL: DIQMTQSPSSVSASVGDRVTITCRASQGISNWLNWYQQKPGKAPKLLIYAASSLQSGVPSRFSGSGSGTDFTLTISSLQPEDFATYYCQQYSDDPTFGQGTKVEIKG
22 | 999 pM | 2980 pM | mAb7024 (antibody, human IgG1, lambda, V domains shown, Framework-engineered mAb; also called engineered form of MOR8104) VH: QVQLVQSGAEVKKPGSSVKVSCKASGGTFSSYAISWVRQAPGQGLEWMGSIIPWFGTTNYAQKFQGRVTITADESTSTAYMELSSLRSEDTAVYYCARDSEYYFDHWGQGTLVTVSS VL: DIQMTQSPSSVSASVGDRVTITCRASQGISNWLNWYQQKPGKAPKLLIYAASSLQSGVPSRFSGSGSGTDFTLTISSLQPEDFATYYCQQYSDDPTFGQGTKVEIKG
23 |  | 192 pM | mAb624 (antibody, human IgG1, lambda, V domains shown, Framework-engineered mAb; also called engineered form of MOR7708) VH: QVQLVQSGAEVKKPGSSVKVSCKASGGTFSSYAISWVRQAPGQGLEWMGRIIPWFGWTSYAQKFQGRVTITADESTSTAYMELSSLRSEDTAVYYCARDSEYYFDHWGQGTLVTVSS VL: DIQMTQSPSSVSASVGDRVTITCRASQGISNWLNWYQQKPGKAPKLLIYAASSLQSGVPSRFSGSGSGTDFTLTISSLQPEDFATYYCQQYSDDPTFGQGTKVEIKG

Source: patent publication US20110236390A1 (Janssen / Centocor, published 2011)
